We go through two substances from paper PMC5656322, “BAK1 is involved in AtRALF1-induced inhibition of root cell expansion” (PLoS Genetics, 2017).

The target of one assay is T1, BAK1-ECD (Arabidopsis thaliana, UniProt Q94F62).
T1 construct: Isothermal titration calorimetry (ITC) of the extracellular domain of BAK1 (BAK1-ECD) vs. AtRALF1; made in house; host or cells: Escherichia coli Rosetta DE3 or BL21
T1 sequence (Q94F62 26-225 limits assumed): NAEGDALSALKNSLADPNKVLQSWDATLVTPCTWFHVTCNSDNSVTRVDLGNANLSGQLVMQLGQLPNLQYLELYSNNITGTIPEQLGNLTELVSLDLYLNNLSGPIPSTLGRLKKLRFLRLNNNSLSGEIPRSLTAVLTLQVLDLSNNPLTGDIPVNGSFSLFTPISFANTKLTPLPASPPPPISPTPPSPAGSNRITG
Put plainly: Isothermal titration calorimetry (ITC). Type of assay: binding. An excerpt:
Fig 6 AtRALF1 interacts physically with BAK1 protein. (A) The active AtRALF1 peptide interacts with the extracellular domain (ECD) of BAK1 (BAK1-ECD) in yeast. The AtRALF1 protein fused to the GAL4 DNA-binding domain (AtRALF1-pGBKT7) was used as bait to test its interaction with the extracellular domain of the proteins fused to the GAL4 activation domain (pGADT7): BAK1 (BAK1-ECD), BAK7 (BAK7-ECD), BRI1 (BRI1-ECD) and FLS2 (FLS2-ECD). (B) Blueprint showing the truncated proteins from the extracellular domain of BAK1 tested in the two-hybrid assay. The extracellular domain of BAK1 comprises leucine zippers (LZ), 5 leucine rich-regions (LRRs) and a proline-rich region (pro-rich). (C) AtRALF1-pGBKT7 was used as bait to test its interaction with truncated proteins fused to the GAL4 activation domain (pGADT7). The transformed yeast cells in (A) and (C) were selected on a synthetic complete medium lacking leucine, tryptophan and histidine to test interactions. (D, E) Co-immunoprecipitation (Co-IP) in vitro between the extracellular domain of BAK1 (HA-BAK1-ECD) and AtRALF1 recombinant purified proteins. HA-BAK1-ECD was detected with an anti-HA antibody. AtRALF1 was detected with an anti-RALF antibody. (F) Recombinant AtRALF1 is co-immunoprecipitated with the BAK1-GFP protein expressed in tobacco. BAK1-GFP was detected with an anti-GFP antibody. […] (G) Isothermal titration calorimetry (ITC) of the extracellular domain of BAK1 (BAK1-ECD) vs. AtRALF1 in ITC buffer (15 mM HEPES, pH 6.8). ITC experiments were simulated using 28 injections of BAK1-ED (0.7 mM, vol 10 μL) on AtRALF1 (0.03 mM vol cell = 1.4 mL) at 25°C. Kd = dissociation constant; N = number of binding sites.
ITC was performed using a VP ITC with a 1.4 ml standard cell and a 293 μl titration syringe. Proteins were dissolved in ITC buffer (15 mM HEPES (4-(2-hydroxyethyl)-1-piperazineethanesulfonic acid, pH 6.8) and the experiments were performed at 25°C. Molar protein concentration for BAK1-ECD and AtRALF1 were calculated using their molecular weight of 25,654.04 and 7,631 Da, respectively (determined by HPLC). The concentrations for the complex titrations were 0.7 mM of protein (BAK1-ECD) in the syringe and 0.03 mM of ligand (AtRALF1) in the cell at time intervals of 300 s (28 injections of volume 10 μl) to ensure that the titration peak returned to the baseline.
ITC data were corrected for the heat of dilution by subtracting the mixing enthalpies for titrant solution injections into protein free ITC buffer. Data were analyzed using the Origin software (version 7.0) as provided by the manufacturer. Independent experiments were repeated three times with similar results.

The subject of assay [1] is cytosolic Ca^2+ in Arabidopsis seedlings. Nature of the assay: Ca^2+ mobilization assay (apoaequorin luminescence). Type of assay: in vivo, Arabidopsis thaliana. As for the experimental part:
The cytoplasmic Ca^2+ assay was performed in Arabidopsis seedlings as described previously. Changes in Ca^2+ levels were measured using an Arabidopsis line homozygous for the single insertion of a transgene encoding a cytoplasmically expressed apoaequorin protein driven by the constitutive promoter 35S [53], here denoted Wt-aeq. Wt-aeq plants were crossed with bak1-3 mutants, and T3 generation plants overexpressing apoaequorin and containing a T-DNA insertion in the BAK1 gene, named bak1-3-aeq, were selected and evaluated using semi-quantitative RT-PCR with specific primers (S1 Table). Arabidopsis seedlings were grown in plates for 4 days. A single seedling was transferred into each well of a 96-well white microplate (Thermo Labsystems) containing 200 μl of medium supplemented with […] coelenterazine cp (Biotium) and incubated in the dark at 24 °C for 16 h. Each well containing a single seedling received recombinant AtRALF1 or acridinium-labeled AtRALF1 at a final concentration of 5, 10 or 100 nM as indicated. The resulting luminescence emission was monitored using a microplate reader (Biotec ELx 800) and 20 time-points for approximately 160 s. The experiments were repeated at least three times using independent biological replicates. The data shown are from one representative experiment.

A further assay concerns HA-BAK1-ECD. Nature of the assay: Co-immunoprecipitation in vitro. The format is binding, Arabidopsis thaliana. The note with it: 100 nM each protein, pH 6.3, overnight 4 °C, agarose anti-HA beads. On the procedure:
The purified recombinant proteins AtRALF1 and HA-BAK1-ECD and the synthetic peptides RALF1(9–49) and RALF1(I6A) were combined in 200 μl of interaction buffer pH 6.3 (100 mM NaCl; 1 mM PMSF; 0.5%Triton X; 2.7 mM KCl; 8 mM NaH2PO4; 2 mM KH2PO4) overnight at 4 °C. A 100-nM concentration of each protein was used. This solution was incubated with agarose anti-HA beads (EZview Red Anti-HA Affinity Gel, Sigma) for 30 min at 4 °C to immunoprecipitate the proteins, washed 5 times with interaction buffer, eluted in 1X SDS sample buffer containing 10% β-mercaptoethanol and applied to an SDS-PAGE gel. The immunoprecipitated HA-BAK1-ECD and co-immunoprecipitated AtRALF1 were analyzed by protein blotting as described. The primary and secondary antibodies used to detect AtRALF1 were anti-AtRALF1 (1:10,000, Celula B, Immunology Laboratory, UFRGS, Brazil) and goat anti-rabbit HRP-conjugated secondary antibody (1: 10,000, BioRad), respectively.

Where no end group is shown, it is not given here.

For the substance “AtRALF1: root-specific RALF isoform in Arabidopsis; recombinant peptide hormone produced in E. coli (ATTKYISYQSLKRNSVPCSRRGASYYNCQNGAQANPYSRGCSKIARCRS; ends and bridges not checked; cysteine pairing not given here)”, the “number of binding sites” value came out at 1.27 with BAK1-ECD (ITC experiment 1 of 3) and 1.5 with BAK1-ECD (ITC experiment 2 of 3). Also, the “N (number of binding sites)” value with BAK1-ECD (representative experiment, Fig 6G, 15 mM HEPES, pH 6.8, 25°C) is 1.27 sites. Also, the “increase in cytoplasmic Ca^2+” value in assay [1] (acriAtRALF1 vs unlabeled AtRALF1, apoaequorin seedlings (S17A Fig)) is listed as “induced an increase in cytoplasmic Ca^2+”. The cytosolic calcium increase entry in assay [1] (bak1-3-aeq plants, 10 and 100 nM) was “cytosolic calcium increase similar to plants expressing the apoaequorin gene in a wild-type background”. The “co-immunoprecipitation with HA-BAK1-ECD” value with HA-BAK1-ECD is listed as “co-immunoprecipitated”.

As to “RALF1(9–49): inactive AtRALF1 peptide which has a deletion of the first 8 amino acids (QSLKRNSVPCSRRGASYYNCQNGAQANPYSRGCSKIARCRS; ends and bridges not checked; cysteine pairing not given here; UniProt Q9SRY3 80-120, looked up, fragment)”, the “interaction with BAK1-ECD by ITC” value with BAK1-ECD (BAK1-ECD 0.7 mM into 0.03 mM peptide, 15 mM HEPES, pH 6.8, 25°C) is “no interaction between the inactive analog and BAK1-ECD”. Also, the “co-immunoprecipitation with HA-BAK1-ECD” value in the assay on HA-BAK1-ECD was “did not co-immunoprecipitate with BAK1”.
